Laboratory results: publication PMC11971343, “Role of charges in a dynamic disordered complex between an IDP and a folded domain” (Nature Communications, 2025)

B1: prothymosin α (ProTα), isoform 2 (natural protein, UniProt P06454-2 1-110, looked up)
chain: MSDAAVDTSSEITTKDLKEKKEVVEEAENGRDAPANGNANEENGEQEADNEVDEEEEEGGEEEEEEEEGDGEEEDGDEDEEAESATGKRAAEDDEDDDVDTKKQKTDEDD
notes: prothymosin α, isoform 2, used for NMR (unlabelled, 15N- or 13C,15N-labelled); BMRB 27215 holds its assignments; Isotope-labelled and unlabelled forms are treated as one molecule; also called 15N-ProTα; source: produced as previously described [16,34,52,78]

How the values were obtained:
Settings in all cases: both partners purified
[1] = target: B1; assay: NMR titration; 1H-15N HSQC of 15N-ProTα (50 μM) with 4x molar ratio of GD-WT or a GD variant; sum of CSPs normalised to that with GD-WT at the same ratio and batch; 283 K, TBSK buffer, pH 7.4
[2] = target: B1; assay: NMR titration; 1H-15N HSQC of 15N-ProTα (28 μM) with GD up to 8x molar ratio, or 8x RST or CaM; 15N-ProTα (37 μM) with 2x full-length H1; 283 K, TBSK buffer (10 mM Tris, 155 mM KCl, 0.1 mM EDTA), pH 7.4
[3] = target: T1, wild-type human histone H1.0, full length (produced recombinantly, for NMR) (human, UniProt P07305 1-194); assay: as above
T1 construct: human linker histone H1.0, wild type, full length; also called full-length H1; linker histone H1.0; source: produced recombinantly [16]
T1 sequence (P07305 whole entry): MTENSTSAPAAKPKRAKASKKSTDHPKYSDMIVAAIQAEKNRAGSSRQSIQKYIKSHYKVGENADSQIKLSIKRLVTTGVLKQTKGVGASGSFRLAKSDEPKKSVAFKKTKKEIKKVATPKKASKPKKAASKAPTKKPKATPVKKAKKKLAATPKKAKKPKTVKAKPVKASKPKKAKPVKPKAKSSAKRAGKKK

| Binder | Relative CSPsum [1] | also measured |
| --- | --- | --- |
| H1-GD variant 6K1 (domain or fragment, human, net charge +5; source: produced as previously described [16,34,52,78]) DHPKYSDMIVAAIQAEKNRAGSSRQSIQQYIKSHYKVGENADSQIKLSIQRLVTTGVLQQTQGVGASGSFRLAK | 0.11 | – |
| H1-GD variant 6K2 (domain or fragment, human, net charge +5; source: produced as previously described [16,34,52,78]) DHPKYSDMIVAAIQAEQNRAGSSRQSIQKYIKSHYKVGENADSQIKLSIQRLVTTGVLKQTQGVGASGSFRLAQ | 0.13 | – |
| RST domain of the plant protein RCD1 (domain or fragment, folded RST domain of the plant protein RCD1, net charge +5; also called RCD1-RST; source: produced as previously described [16,34,52,78]) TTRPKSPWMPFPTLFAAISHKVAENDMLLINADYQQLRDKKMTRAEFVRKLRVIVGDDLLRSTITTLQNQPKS | – | binding result [2]: binds |
| B1 | – | binding result [3]: binds |
